Data: paper PMC5500549, “DNA binding strength increases the processivity and activity of a Y-Family DNA polymerase” (Scientific Reports, 2017)

Assays:
[1] = test system: Sdbh (Sso7d-Dbh fusion) (Sulfolobus acidocaldarius (Dbh); Sso7d source organism not stated); assay: fluorescence titration (2AP); conditions: 2-aminopurine at the primer terminus; 50 mM Tris acetate pH 7.5, 50 mM sodium acetate, 10 mM magnesium acetate, 5 mM DTT, 0.05% Tween 20, 25 °C; 100 nM 2AP-P/T, 0-1000 nM pol
[2] = test system: SdbhK337R (Sulfolobus acidocaldarius (Dbh); Sso7d source organism not stated); assay: fluorescence titration (2AP); conditions: 2-aminopurine at the primer terminus; 50 mM Tris acetate pH 7.5, 50 mM sodium acetate, 10 mM magnesium acetate, 5 mM DTT, 0.05% Tween 20, 25 °C; 100 nM 2AP-P/T, 0-1000 nM pol
[3] = test system: SdbhL250V (Sulfolobus acidocaldarius (Dbh); Sso7d source organism not stated); assay: fluorescence titration (2AP); conditions: 2-aminopurine at the primer terminus; 50 mM Tris acetate pH 7.5, 50 mM sodium acetate, 10 mM magnesium acetate, 5 mM DTT, 0.05% Tween 20, 25 °C; 100 nM 2AP-P/T, 0-1000 nM pol
[4] = test system: SdbhI62V (Sulfolobus acidocaldarius (Dbh); Sso7d source organism not stated); assay: fluorescence titration (2AP); conditions: 2-aminopurine at the primer terminus; 50 mM Tris acetate pH 7.5, 50 mM sodium acetate, 10 mM magnesium acetate, 5 mM DTT, 0.05% Tween 20, 25 °C; 100 nM 2AP-P/T, 0-1000 nM pol
[5] = test system: SdbhM76I (Sulfolobus acidocaldarius (Dbh); Sso7d source organism not stated); assay: fluorescence titration (2AP); conditions: 2-aminopurine at the primer terminus; 50 mM Tris acetate pH 7.5, 50 mM sodium acetate, 10 mM magnesium acetate, 5 mM DTT, 0.05% Tween 20, 25 °C; 100 nM 2AP-P/T, 0-1000 nM pol
[6] = test system: Dbh (WT) (Sulfolobus acidocaldarius); assay: fluorescence titration (2AP); conditions: 2-aminopurine at the primer terminus; 50 mM Tris acetate pH 7.5, 50 mM sodium acetate, 10 mM magnesium acetate, 5 mM DTT, 0.05% Tween 20, 25 °C; 100 nM 2AP-P/T, 0-1000 nM pol
[7] = test system: SdbhKSKIP241-245RVRKS (Sulfolobus acidocaldarius (Dbh); Sso7d source organism not stated); assay: fluorescence titration (2AP); conditions: 2-aminopurine at the primer terminus; 50 mM Tris acetate pH 7.5, 50 mM sodium acetate, 10 mM magnesium acetate, 5 mM DTT, 0.05% Tween 20, 25 °C; 100 nM 2AP-P/T, 0-1000 nM pol
[8] = test system: SdbhY249I (Sulfolobus acidocaldarius (Dbh); Sso7d source organism not stated); assay: fluorescence titration (2AP); conditions: 2-aminopurine at the primer terminus; 50 mM Tris acetate pH 7.5, 50 mM sodium acetate, 10 mM magnesium acetate, 5 mM DTT, 0.05% Tween 20, 25 °C; 100 nM 2AP-P/T, 0-1000 nM pol
[9] = test system: SdbhT37F (Sulfolobus acidocaldarius (Dbh); Sso7d source organism not stated); assay: fluorescence titration (2AP); conditions: 2-aminopurine at the primer terminus; 50 mM Tris acetate pH 7.5, 50 mM sodium acetate, 10 mM magnesium acetate, 5 mM DTT, 0.05% Tween 20, 25 °C; 100 nM 2AP-P/T, 0-1000 nM pol
[10] = test system: SdbhA221S (Sulfolobus acidocaldarius (Dbh); Sso7d source organism not stated); assay: fluorescence titration (2AP); conditions: 10 mM Mg2+; 2-aminopurine at the primer terminus; 50 mM Tris acetate pH 7.5, 50 mM sodium acetate, 10 mM magnesium acetate, 5 mM DTT, 0.05% Tween 20, 25 °C; 100 nM 2AP-P/T, 0-1000 nM pol
[11] = substrate: Nc1ccn([C@H]2C[C@H](O)[C@@H](COP(=O)(O)OP(=O)(O)OP(=O)(O)O)O2)c(=O)n1; assay: steady-state single-nucleotide insertion, FAM-primer gel assay; type: biochemical, Sulfolobus acidocaldarius; conditions: opposite template G (correct), 1.0 μM primer-template, 20 nM pol, 5 mM MgCl2, 100 mM KCl, pH 7.5, 37 °C, apparent Km
Excerpt: (§1) steady-state single-nucleotide insertion, FAM-primer gel assay on Dbh (WTDbh)

[12] = substrate: Nc1ncnc2c1ncn2[C@H]1C[C@H](O)[C@@H](COP(=O)(O)OP(=O)(O)OP(=O)(O)O)O1; assay: as above; type: biochemical, Sulfolobus acidocaldarius; conditions: opposite template G (incorrect, misinsertion), 1.0 μM primer-template, 20 nM pol, 5 mM MgCl2, 100 mM KCl, pH 7.5, 37 °C, apparent Km
Excerpt: as §1

Molecule	Kd [1] [nM]	Kd [2] [nM]	Kd [3] [nM]	Kd [4] [nM]	Kd [5] [nM]	Kd [6] [nM]	Kd [7] [nM]	Kd [8] [nM]	Kd [9] [nM]	Kd [10] [nM]	Km [11] [µM]	Vmax [11] [µM/min]	Km [12] [µM]	Vmax [12] [µM/min]
2AP-P/T primer-template	51.2	55.5	50.4	49.8	42.8	54.8	34.8	56.2	49.7	47.5				
Dbh (WTDbh) (Sulfolobus acidocaldarius DSM 639) (protein, synthetic gene, 6xHis tag (C-terminal by gene design, N-terminal by purification), expressed in E. coli BL21(DE3), Ni-NTA and Mono-S) MIVIFVDFDYFFAQVEEVLNPQYKGKPLVVCVYSGRTKTSGAVATANYEARKLGVKAGMPIIKAMQIAPSAIYVPMRKPIYEAFSNRIMNLLNKHADKIEVASIDEAYLDVTNKVEGNFENGIELARKIKQEILEKEKITVTVGVAPNKILAKIIADKSKPNGLGVIRPTEVQDFLNELDIDEIPGIGSVLARRLNELGIQKLRDILSKNYNELEKITGKAKALYLLKLAQNKYSEPVENKSKIPHGRYLTLPYNTRDVKVILPYLKKAINEAYNKVNGIPMRITVIAIMEDLDILSKGKKFKHGISIDNAYKVAEDLLRELLVRDKRRNVRRIGVKLDNIIINKTNLSDFFDI											88.2 ± 12.0	0.001	215.2 ± 18.7	1.9e-05
